Measured values taken from patent US20100316642A1, “COMPLEXES OF GRP94 WITH HUMAN IMMUNOGLOBULIN G” (priority 2007, published 2010).

B1: Grp94: Glucose-regulated protein 94, native, purified from the microsomal fraction of rat hepatocytes (protein, UniProt Q66HD0 22-804, looked up)
Endoplasmin: DDEVDVDGTVEEDLGKSREGSRTDDEVVQREEEAIQLDGLNASQIRELREKSEKFAFQAEVNRMMKLIINSLYKNKEIFLRELISNASDALDKIRLISLTDENALAGNEELTVKIKCDREKNLLHVTDTGVGMTREELVKNLGTIAKSGTSEFLNKMTEAQEDGQSTSELIGQFGVGFYSAFLVADKVIVTSKHNNDTQHIWESDSNEFSVIADPRGNTLGRGTTITLVLKEEASDYLELDTIKNLVRKYSQFINFPIYVWSSKTETVEEPLEEDETAQEEKEEADDEAAVEEEEEEKKPKTKKVEKTVWDWELMNDIKPIWQRPSKEVEEDEYKAFYKSFSKESDDPMAYIHFTAEGEVTFKSILFVPTSAPRGLFDEYGSKKSDYIKLYVRRVFITDDFHDMMPKYLNFVKGVVDSDDLPLNVSRETLQQHKLLKVIRKKLVRKTLDMIKKIADEKYNDTFWKEFGTNIKLGVIEDHSNRTRLAKLLRFQSSHHSTDITSLDQYVERMKEKQDKIYFMAGSSRKEAESSPFVERLLKKGYEVIYLTEPVDEYCIQALPEFDGKRFQNVAKEGVKFDESEKSKESREATEKEFEPLLNWMKDKALKDKIEKAVVSQRLTESPCALVASQYGWSGNMERIMKAQAYQTGKDISTNYYASQKKTFEINPRHPLIRDMLRRVKEDEDDKTVMDLAVVLFETATLRSGYLLPDTKAYGDRIERMLRLSLNIDPEAQVEEEPEEEPEDTTEDTTDDSEQDEEETDAGAEEEEEEQETEKEPTEKDEL

Key:
[1] = tested on: HUVECs; assay: Microscopic evaluation of morphogenic (angiogenic) transformation of HUVECs; assay type: cell-based, human
[2] = tested on: human umbilical vein endothelial cells (HUVECs); assay: Cell growth stimulation of HUVECs (cell count in hemocytometer); assay type: cell-based; conditions: U0126 10 μM alone, no Grp94, control without inhibitor (DMSO 0.1%) 98.01±5.4×10^3
[3] = tested on: HSP90 and HSP70 expression in HUVECs; assay: Expression of HSP90, HSP70 and IgG in HUVEC lysates and conditioned media (SDS-PAGE, Western blotting); assay type: cell-based, human
Protocol: 2. Effects on the expression of HSP70 and HSP90 in HUVECs: hereafter are described in detail the method and results shown in FIG. 3(A) referred to experiments performed after 20-h incubation of cells in the presence of Grp94 (10 ng/ml), both alone and with IgG, with and without the inhibitor U0126 (10 μM, final concentration). Cells were detached from wells and treated with lysis buffer (50 mM Tris-HCl, pH 8.9, 5 mM EDTA, 380 mM glycine, 2% SDS, 7 mM β-mercaptoethanol). Whole cell lysates were analyzed in SDS-PAGE (10% polyacrylamide gel) followed by Western blotting with anti-HSP90, anti-HSP70 and anti-human IgG Abs. The same quantity of proteins (determined by means of densitometric analysis made on common bands in any lysates) was loaded in each well in SDS-PAGE. Arrows on left mark bands in the lanes that are also shared by nearby lanes on right. […] It is worth noting that band positive for IgG appear at the same masses at which also focuses HSP70. In the presence of the inhibitor, the HSP90 expression is blocked, whereas that of both HSP70 and IgG is still evident in cells after treatment, especially in bands at higher molecular masses. Western blotting for each type of protein is representative of at least three other experiments made on the same samples on different occasions.
The analysis made on cell lysates was also conducted on conditioned media (collected from the same cell cultures on which lysates were obtained, as reported above). Media were collected from duplicate wells, centrifuged for removing cell debris, extensively dialyzed, lyophilized and submitted to electrophoresis analysis followed by Western blotting with anti-HSP90, anti-HSP70 and anti-human IgG Abs (as above, for cell lysates). […] In particular, it was observed that the secreted species of HSP90, HSP70 and IgG were only those induced by treatments with Grp94, especially in complexes with IgG.

[4] = tested on: human IgG; assay: Dot-blot analysis of Grp94 binding to human IgG; conditions: human IgG 4 μg/ml, 8 h room temperature
Protocol: In dot-blot experiments, strips of PVDF membrane were rinsed first in methanol (1 min) and then in de-ionized water (1 min) and let partially dry (3 min). Dots were made with 10 μl of Grp94 (2 μg). Grp94 solution (in bi-distilled water) was used as such (without any treatment) or after boiling for 2 min. Dots with each of the Grp94 solutions (both untreated and boiled) were made in duplicate on membrane strips that were incubated in both absence (control, in TBS only) and presence of human IgG (4 μg/ml) for 8 h at room temperature. Membrane strips were then incubated overnight with a blocking solution of BSA (1%) and Tween (0.2%), followed by washings with TBS (for 1 h) and a further incubation with primary sheep anti-human IgG Abs (2.5 μg/ml). After repeated washings with TBS (for 1 h), membrane strips were then immersed in the solution of secondary Abs (donkey anti-sheep IgG Abs) for 1 h and probed with the detection solution. Control strips with dots of Grp94 incubated with TBS alone were probed with both primary and secondary Abs, and with secondary Abs alone.

[5] = tested on: HUVECs; assay: Confocal microscopy of HSP90/HSP70 fluorescence and cytoskeleton changes in HUVECs; assay type: cell-based, human; conditions: Grp94 10 ng/ml, serum-free medium
Protocol: Cells were cultured in serum-free medium both without any treatment (control, panels a) and with the addition of both Grp94 alone (10 ng/ml) (panels b) and Grp94 in complexes with IgG (panels c), as specified above. In FIG. 4(A) is shown the fluorescence (evidenced with confocal microscopy) due to anti-HSP90 Abs reacting with HSP90 in both control and treated HUVECs (panels a, b and c on left). Intensity of the fluorescence is increased in cells treated with Grp94, especially when present in complexes with IgG. […] Of interest is the co-location of HSP90 with actin, mostly evident in podosomes, underlined by the pale blue fluorescence due to merging of the green and blue fluorescence of HSP90 and actin, respectively (panels on right). In FIG. 4(B) is shown the fluorescence due to HSP70 following the addition to cell cultures of anti-HSP70 Abs, similarly to what reported for anti-HSP90 Abs. […] Arrow heads in both (A) and (B) mark some of the most significant structural changes in the cell cytoskeleton (inserts in panels on right).

[6] = tested on: PBMC; assay: IgG production from PBMC (anti-human Ig-I125 radioimmunoassay of supernatants); assay type: cell-based; conditions: Grp94 10 ng/ml (maximum of stimulation), 2-week incubation at 37° C.
Protocol: In experiments aimed at measuring IgG concentrations in the medium, PBMCs are seeded at the concentration of 2×10^6 cells/ml (1 ml/well) in a 24- or 48-well flat-bottomed plate (wells of 2 and 1 ml, respectively) incubated at 37° C., in a humidified 95% air, 5% CO2 atmosphere for 2 weeks. Controls included triplicate wells containing medium only (or the diluent in which substances were dissolved, where appropriate), puromicine (100 μg/ml, final concentration, useful for detecting background Abs, i.e., Abs already present in circulation non specifically bound to blood cells), and a standard mitogen (pockweed mitogen, PWM) diluted 1:50 (v:v). Treatment included the addition of Grp94 (at final concentrations of 1, 10 and 100 ng/ml), both alone and in complexes with IgG, and IgG alone (at the final concentration necessary to give a 1:1 molar ratio with Grp94), after each solution was incubated at 37° C. for 1 h.
5. IgG production from PBMC: on a 96-well (200 μl each) flat-bottomed Optiplate (Packard) were laid down 50 μl of anti-human IgG Abs (5 μg/ml in NaHCO3/Na2CO3 buffer, ph 9.6) that were allowed to dry out overnight. Afterwards, 200 μl of PBS with 3% BSA and 0.02% NaN3 were added to saturate aspecific binding sites in Abs. […] The plate was then dried after additional washings and radioactivity measured after the addition of 30 μl of Microscint 20 in each well. […]

[7] = tested on: human peripheral blood mononuclear cells (PBMCs); assay: Growth stimulation of PBMCs (cell count after 2-week culture); assay type: cell-based; conditions: 2-week incubation, no FBS, control 10% FBS
Protocol: 4. Effects of stimulation of PBMC: PBMC were obtained from blood using the method of the Ficoll-Paque gradient. A sample of about 25 ml of buffy-coat (concentrated sample of red blood cells, white blood cells and platelets) was obtained after centrifugation of 250 ml of blood. The buffy-coat, containing about 300-600 million of PBMCs (1 million/ml of blood sample), was put in a 50-ml Falcon test-tube with the addition of a volume of RPMI (Roswell Park Memorial Institute) medium equal to half of the buffy-coat volume. The first step of PBMC separation included the preparation of the Ficoll solution in aliquots kept in the dark at +4° C. Five ml of buffy-coat were dropped on 4 ml of Ficoll solution put in Falcon test-tube (14-ml capacity). After centrifugation at 600×g for 30 min in swinging buket rotor, the white disk of PBMCs stratified between the upper […] (red blood cells instead precipitate to the bottom), and was thus recovered with a Pasteur pipette. The fractions of PBMCs were mixed together in a Falcon test-tube (50-ml capacity) and fresh RPMI medium added up to the volume of 50 ml. After centrifugation at 600×g for 15 min, the supernatant was discarded and the pellet washed twice by adding the medium up to the volume of 50 ml, each washing being followed by centrifugation at 300×g for 10 min. After the last centrifugation, the pellet was re-suspended with RPMI medium up to 50 ml of volume.
The count of PBMCs was made on a diluted solution of PBMCs, mixing 50 μl of the starting solution in 250 μl (final volume) of Turk dye solution (in acetic acid). The cell count was made in a common cell-counting chamber.
In experiments aimed at measuring IgG concentrations in the medium, PBMCs are seeded at the concentration of 2×10^6 cells/ml (1 ml/well) in a 24- or 48-well flat-bottomed plate (wells of 2 and 1 ml, respectively) incubated at 37° C., in a humidified 95% air, 5% CO2 atmosphere for 2 weeks. […]

Row | binding to IgG (dot-blot) ([4]; Grp94 after boiling for 2 min) | binding to IgG (dot-blot) ([4]; untreated Grp94 2 μg dots) | Molecule | morphology of HUVECs with inhibitor on its own ([1]; U0126 10 μM alone) | number of control cells in presence of the inhibitor [2] | HSP90 expression in treated HUVECs in the presence of the inhibitor ([3]; U0126 10 μM added to cells treated with Grp94 10 ng/ml alone or with IgG) | morphogenic transformation of HUVECs ([1]; Grp94 10 ng/ml, alone or with IgG 1:1, not changed significantly by U0126, versus cobblestone morphology of control) | intensity of HSP90 fluorescence (confocal microscopy) ([5]; especially in complexes with IgG) | fluorescence of HSP70 (confocal microscopy) ([5]; versus control) | HSP90, HSP70 and IgG in conditioned media (Western blotting) ([3]; HUVEC media after 20-h treatment, Grp94 10 ng/ml, no positivity in control media, mostly in complexes with IgG) | HSP70 in whole cell lysates (Western blotting) ([3]; HUVECs, Grp94 10 ng/ml, 20-h incubation, constitutive form in any lysates) | HSP90 in whole cell lysates (Western blotting) ([3]; HUVECs, Grp94 10 ng/ml, 20-h incubation, not present in control lysates) | IgG production (radioactivity) [6] [cpm] | increase in PBMC number with respect to the control value ([7]; Grp94 1 ng/ml) [%] | increase in PBMC number with respect to the control value ([7]; Grp94 10 ng/ml) [%] | increase in PBMC number with respect to the control value ([7]; Grp94 100 ng/ml) [%]
1 |  |  | N#CC(=C(/N)Sc1ccccc1N)/C(C#N)=C(\N)Sc1ccccc1N [U0126, reference compound] | pre-angiogenic transformation | 80.38±4.02×10^3 | blocked |  |  |  |  |  |  |  |  |  | 
2 | did not bind IgG any longer | stable binding | B1 |  |  |  | angiogenic modifications | increased | increased | positive immune reaction | additional bands referred to inducible species of HSP70 | positivity | 316 | 5 | 63 | 47
